Patent US20230321189A1, “THERAPEUTIC AGENTS, PHARMACEUTICAL COMPOSITIONS, AND ASSOCIATED BIOMARKERS BASED ON TRK-B” (INSTITUTO DE MEDICINA MOLECULAR JOÃO LOBO ANTUNES, priority 2020, published 2023)
“Also recorded” adds a separate entry of the source. Where no end group is shown, it is not given here.

Key:
[1] = target: T1, TrkB-FL (Rattus norvegicus, UniProt Q63604); test: Calpain in vitro assay, adult rat brain cortex homogenate (Western blot); type: biochemical; design: rat cortical tissue or neuronal cultured cells were homogenized in Radio Immuno Precipitation Assay (RIPA) buffer; from tissue; host or cells: adult rat brain cortex homogenate (100 μg protein); conditions: peptide without linker 20 μM, m-calpain 1 or 2 EU, CaCl2 2 mM
Protocol: For calpain enzymatic assays, rat cortical tissue or neuronal cultured cells were homogenized in Radio Immuno Precipitation Assay (RIPA) buffer, containing 50 mM Tris-HCl [pH=7.5], 150 mM NaCl, 5 mM ethylenediamine tetra-acetic acid, 0.1% sodium dodecyl sulfate (SDS), 1% [v/vl] Triton X-100, protease inhibitors (Roche, Penzberg, Germany) and phosphatase inhibitors (10 mM NaF and 5 mM Na3VO4). For tissue homogenization, Vibracell VC250 Ultrasonic Liquid Processor was used (Sonics & Materials, Inc, CT, USA). Protein concentration was measured using Bio-Rad DC reagent (Bio-Rad Laboratories, Berkeley, CA, USA) after homogenates clarification by centrifugation (16,000 g, 4° C., 10 min). The purified rat m-calpain (1 or 2 enzymatic units, EU) (Calbiochem, San Diego, CA, USA) was incubated for 30 min at 25° C. in a 100 μL final volume of lysis buffer containing the homogenate protein (100 μg for rat brain cortex experiments and 65 μg for neuronal cultured cells), 2 mM of CaCl2 and TAT-TrkB peptide (5, 20 or 50 μM). […] Finally, immunoreactivity was detected using the ECL system (ECL chemiluminescence detection system, GE Healthcare), an appropriate exposure time in a ChemiDoc (Bio-Rad, XRS^+) and quantified by the digital densitometry tool of ImageJ 1.45 software (Bethesda, MD, USA). […]

[2] = target: T1, TrkB-FL; test: Aβ-driven TrkB-FL cleavage in primary neuronal cultures (Western blot); type: cell-based; design: Western-blot of neuronal cultures; endogenous in cells; host or cells: primary cortical neuronal cultures from E17-E18 embryos; conditions: DIV8 neuronal cultures, peptide without linker, 20 μM (1, 5, 20 and 50 μM)
Protocol: Primary neuronal cultures were prepared as routinely in the lab^6. Briefly, animals were deeply anesthetized with isoflurane ([…], Barcelona, Spain) in an anaesthesia chamber before being sacrificed by decapitation. Embryos (E17-E18) were rapidly removed from the uterus and brains were dissected and placed in cold Ca^2+- and Mg^2+-free Hank's Balanced Salt Solution (HBSS) (Gibco, Paisley, UK). Cerebral cortex was isolated, mechanically fragmented and digested with 0.025% (wt/vl) trypsin solution (Gibco, Paisley, UK) in HBSS for 15 min at 37° C. After digestion, cells were precipitated by centrifugation at 1200 rpm. The supernatant was removed and 20% Fetal Bovine Serum (FBS) (Gibco, Paisley, UK) was added to HBSS. […] To obtain single cells and avoid cellular clusters or tissue fragments, the suspension was filtered with a nylon filter (BD FalconTM Cell Strainer 70 μM, Thermo Fisher Scientific, Waltham, MA, USA) and cell density was determined by counting cells in a 0.4% trypan blue solution using a hemacytometer. […] Finally, immunoreactivity was detected using the ECL system (ECL chemiluminescence detection system, GE Healthcare), an appropriate exposure time in a ChemiDoc (Bio-Rad, XRS^+) and quantified by the digital densitometry tool of ImageJ 1.45 software (Bethesda, MD, USA). […]

[3] = system: bEnd.3 brain endothelioma cells; test: BEB in vitro integrity assay (FD4 probe); type: in vitro ADME; conditions: FD4 added after each TAT-TrkB translocation assay, 2 h
Protocol: (§1) To evaluate the ability of the TAT-TrkB peptide to translocate the BEB, the inventors used a well-established in vitro model^15. It comprises a transwell system with an insert in which bEnd.3 brain endothelioma cells (ATTCC-CRL-2299, Lot. 59618606) are cultured for 9 days. In this model, the apical chamber replicates the blood compartment, while the basolateral chamber replicates the brain compartment (FIG. 7a). For these experiments, 6-FAM was fused to the N-terminal of the TAT-TrkB peptide, in order to detect the peptide by fluorescence. The TAT-TrkB-6-FAM peptide (5 μM, diluted in DMEM without phenol red) was delivered to the apical compartment. After incubation times of 1 h, 4 h and 24 h, in different inserts, medium from the apical and basolateral compartments was collected and fluorescence measured at 495 nm excitation and 517 nm emission wavelengths using the Varioskan LUX Multimode microplate reader (Thermo Scientific, Rockford, IL, USA ThermoFisher Scientific). Peptide translocation was quantified as the fluorescence detected in the basolateral compartment normalized to the sum of the fluorescence detected in both compartments. […] For these, FD4 fluorescent probe (diluted in DMEM without phenol red to a final absorbance below 0.1) was added to the apical compartment of the same inserts and incubated for 2 h. […]

[4] = system: bEnd.3 brain endothelioma cells; conditions: TAT-TrkB-6-FAM 5 μM apical; 1 h, 4 h and 24 h
Protocol: as §1

[5] = listed as TAT-TrkB without a linker sequence

T1 sequence (Q63604 32-821): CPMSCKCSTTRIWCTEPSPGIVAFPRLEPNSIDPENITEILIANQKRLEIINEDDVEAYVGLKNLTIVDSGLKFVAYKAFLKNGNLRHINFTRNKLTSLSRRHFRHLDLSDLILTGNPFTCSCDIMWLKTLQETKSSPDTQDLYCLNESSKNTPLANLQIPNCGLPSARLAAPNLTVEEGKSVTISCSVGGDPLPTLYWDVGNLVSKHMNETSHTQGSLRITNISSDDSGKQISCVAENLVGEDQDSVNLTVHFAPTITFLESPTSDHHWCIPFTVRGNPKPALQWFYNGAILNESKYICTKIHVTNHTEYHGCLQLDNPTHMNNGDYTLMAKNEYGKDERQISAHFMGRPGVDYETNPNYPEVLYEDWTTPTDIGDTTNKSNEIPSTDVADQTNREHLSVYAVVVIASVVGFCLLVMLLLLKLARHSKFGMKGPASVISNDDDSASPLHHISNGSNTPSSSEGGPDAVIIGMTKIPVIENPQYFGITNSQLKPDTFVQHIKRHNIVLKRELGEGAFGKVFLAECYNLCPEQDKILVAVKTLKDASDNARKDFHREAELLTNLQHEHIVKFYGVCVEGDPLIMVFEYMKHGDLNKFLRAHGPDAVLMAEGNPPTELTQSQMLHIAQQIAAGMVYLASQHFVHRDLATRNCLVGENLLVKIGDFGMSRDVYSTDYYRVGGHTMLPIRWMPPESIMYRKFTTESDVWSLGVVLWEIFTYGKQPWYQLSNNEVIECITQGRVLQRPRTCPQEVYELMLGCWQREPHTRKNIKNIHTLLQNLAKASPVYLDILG

Sequence | TrkB-FL cleavage and TrkB-ICD formation by m-calpain [1] | TrkB-FL cleavage and TrkB-ICD formation by m-calpain [1, 5] | TrkB-FL cleavage and TrkB-ICD formation with Aβ incubation [2] | TrkB-FL cleavage and TrkB-ICD formation with Aβ incubation [2, 5] | BEB integrity (clearance of FD4 from the apical chamber) [3] | translocation of the BEB [4]
YGRKKRRQRRRPQYFGITNSQLKPDTF [SEQ ID NO: 25, first version of TAT-TrkB without the linker] | not able to prevent TrkB-FL cleavage | not prevented | not able to prevent TrkB-FL cleavage | not prevented | – | –
YGRKKRRQRRRKKFGITNSQLKP [TAT-TrkB] | – | – | – | – | without affecting its integrity; also recorded: negligible | translocated the BEB overtime
